The chains are these.
B1: Ephrin-B2 (Mus musculus), P52800 (parent)
chain: MAMARSRRDSVWKYCWGLLMVLCRTAISRSIVLEPIYWNSSNSKFLPGQGLVLYPQIGDKLDIICPKVDSKTVGQYEYYKVYMVDKDQADRCTIKKENTPLLNCARPDQDVKFTIKFQEFSPNLWGLEFQKNKDYYIISTSNGSLEGLDNQEGGVCQTRAMKILMKVGQDASSAGSARNHGPTRRPELEAGTNGRSSTTSPFVKPNPGSSTDGNSAGHSGNNLLGSEVALFAGIASGCIIFIVIIITLVVLLLKYRRRHRKHSPQHTTTLSLSTLATPKRGGNNNGSEPSDVIIPLRTADSVFCPHYEKVSGDYGHPVYIVQEMPPQSPANIYYKV
partner: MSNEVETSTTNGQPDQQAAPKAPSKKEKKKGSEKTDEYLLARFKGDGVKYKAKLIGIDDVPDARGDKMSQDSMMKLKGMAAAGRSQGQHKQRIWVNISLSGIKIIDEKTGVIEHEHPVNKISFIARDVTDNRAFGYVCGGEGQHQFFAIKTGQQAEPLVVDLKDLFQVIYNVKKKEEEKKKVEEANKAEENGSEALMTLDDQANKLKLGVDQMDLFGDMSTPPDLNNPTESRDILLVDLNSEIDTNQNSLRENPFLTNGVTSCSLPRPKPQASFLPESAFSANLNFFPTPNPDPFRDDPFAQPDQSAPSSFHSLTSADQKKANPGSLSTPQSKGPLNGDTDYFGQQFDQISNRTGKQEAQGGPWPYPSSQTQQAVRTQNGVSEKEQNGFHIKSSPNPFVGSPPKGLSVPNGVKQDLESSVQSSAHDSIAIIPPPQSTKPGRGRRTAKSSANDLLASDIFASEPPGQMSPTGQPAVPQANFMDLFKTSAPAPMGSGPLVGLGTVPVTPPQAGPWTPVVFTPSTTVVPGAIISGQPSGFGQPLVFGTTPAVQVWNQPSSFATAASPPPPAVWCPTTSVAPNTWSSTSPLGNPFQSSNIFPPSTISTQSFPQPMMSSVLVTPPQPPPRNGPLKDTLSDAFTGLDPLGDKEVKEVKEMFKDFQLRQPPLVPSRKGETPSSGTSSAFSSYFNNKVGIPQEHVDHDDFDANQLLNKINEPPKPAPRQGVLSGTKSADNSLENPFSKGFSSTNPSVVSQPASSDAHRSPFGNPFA

Consider one variant from IntAct's records for PubMed 23354168.

Variants of B1 are the subject of this assay. The note with it: with dab2_rat Dab2, O88797.
Take V336S: the “effect of a mutation on the interaction” value is reported as “disrupting interaction strength”.
